The chains are these.
B1: P4.33 protein (IGFBP-3 receptor, IGFBP-3R), untagged / endogenous (receptor)
chain: SFLLTHRTGLRSPDIPQDWVSFLRSFGQLTLCPRNGTVTGKWRGSHVVGLLTTLNFGDGPDRNKTRTFQATVLGSQMGLKGSSAGQLVLITARVTTERTAGTCLYFSAVPGILPSSQPPISCSEEGAGNATLSPRMGEECVSVWSHEGLVLTKLLTSEELALCGSRLLVLGSFLLLFCGLLCCVTAMCFHPRRESHWSRTRL

For assay [1], the target named is T1, Insulin-like Growth Factor Binding Protein-3 (IGFBP-3) (UniProt P17936 28-291, limits assumed, 125I label or OregonGreen label in some assays (sites not given)).
T1 construct: mature; Also used for IGFBP-3 expressed by the cells themselves (Hs578T, PC-3, MCF-7:BP-3 lines) in the functional rows; also called unlabelled IGFBP-3
Put plainly: cell-surface binding with unlabelled IGFBP-3 as competitor, Hs578T cells transfected with un-tagged clone 4.33. The protocol:
Cell surface binding assay. Cells were seeded into 24-well plates and grown to 60-70% confluency, then transfected according to manufacturer instructions in serum-containing medium for 36 hours. Sf9 cells were seeded into 24-well plates and infected with virus harboring the 4-33^F cDNA for 48 hours. Cells were washed in cold PBS, then incubated for 3 hours at 12° C. in binding buffer (1× Hank's buffered salt solution, 1 mM CaCl₂, 1 mM MgCl₂, 0.5% BSA) containing [¹²⁵I]-IGFBP-3 (Diagnostic Systems Laboratories) at 50,000 cpm per well in triplicate, with or without unlabelled IGFBP-3 as indicated in the text below. The binding solution was then aspirated and the cells washed in cold binding buffer (without BSA), lysed in 0.25 N NaOH, and the radiolabelled IGFBP-3 present in each lysate was detected in a gamma counter.
Cells were then washed and exposed to [¹²⁵I]-labelled IGFBP-3 plus and minus increasing amounts of unlabelled IGFBP-3 as indicated for 3 hours at 12° C.

Assay [2] concerns the target B1. Put plainly: cell-surface competition assay; competitor of full-length IGFBP-3.

For B1, the binding result in assay [1] was “binds”.

B2: IGFBP-3 fragment comprising amino acids 98-264 (other, UniProt P17936 125-291, looked up)
chain: AYLLPAPPAPGNASESEEDRSAGSVESPSVSSTHRVSDPKFHPLHSKIIIIKKGHAKDSQRYKVDYESQSTDTQNFSSESKRETEYGPCRREMEDTLNHLKFLNVLSPRGVHIPNCDKKGFYKKKQCRPSKGRKRGFCWCVDKYGQPLPGYTTKGKEDVHCYSMQSK
notes: range 98-264; also called IGFBP-3 fragment 98-264
With B2, in assay [2], the binding result is “binds”.

B3: IGFBP-3 fragment comprising amino acids 88-148 (peptide, UniProt P17936 115-175, looked up)
chain: VNASAVSRLRAYLLPAPPAPGNASESEEDRSAGSVESPSVSSTHRVSDPKFHPLHSKIIII
notes: range 88-148; also called IGFBP-3 fragment 88-148
For the molecule B3, in assay [2], the binding result is given as “binds”.
